{"source": "patent US20220003777A1", "about": "(Stanford University, published 2022)", "binders": {"B1": {"name": "C1 esterase inhibitor, human plasma-derived (other)", "chain": "NPNATSSSSQDPESLQDRGEGKVATTVISKMLFVEPILEVSSLPTTNSTTNSATKITANTTDEPTTQPTTEPTTQPTIQPTQPTTQLPTDSPTQPTTGSFCPGPVTLCSDLESHSTEAVLGDALVDFSLKLYHAFSAMKKVETNMAFSPFSIASLLTQVLLGAGENTKTNLESILSYPKDFTCVHQALKGFTTKGVTSVSQIFHSPDLAIRDTFVNASRTLYSSSPRVLSNNSDANLELINTWVAKNTNNKISRLLDSLPSDTRLVLLNAIYLSAKWKTTFDPKKTRMEPFHFKNSVIKVPMMNSKKYPVAHFIDQTLKAKVGQLQLSHNLSLVILVPQNLKHRLEDMEQALSPSVFKAIMEKLEMSKFQPTLLTLPRIKVTTSQDMLSIMEKLEFFDFSYDLNLCGLTEDPDLQVSAMQHQTVLELTETGVEAAAASAISVARTLLVFEVQQPFLFVLWDQQHKFPVFMGRVYDPRA", "notes": "Printed as C11NH throughout (OCR of C1INH); Native glycosylated protein; also called C11NH; C1-INH"}}, "target": "T1, Secreted Protease of C1 Esterase Inhibitor (StcE), recombinant N-terminal His-tagged (Escherichia coli O157:H7, UniProt O82882 36-898)", "T1 construct": "also called mucinase", "T1 sequence": "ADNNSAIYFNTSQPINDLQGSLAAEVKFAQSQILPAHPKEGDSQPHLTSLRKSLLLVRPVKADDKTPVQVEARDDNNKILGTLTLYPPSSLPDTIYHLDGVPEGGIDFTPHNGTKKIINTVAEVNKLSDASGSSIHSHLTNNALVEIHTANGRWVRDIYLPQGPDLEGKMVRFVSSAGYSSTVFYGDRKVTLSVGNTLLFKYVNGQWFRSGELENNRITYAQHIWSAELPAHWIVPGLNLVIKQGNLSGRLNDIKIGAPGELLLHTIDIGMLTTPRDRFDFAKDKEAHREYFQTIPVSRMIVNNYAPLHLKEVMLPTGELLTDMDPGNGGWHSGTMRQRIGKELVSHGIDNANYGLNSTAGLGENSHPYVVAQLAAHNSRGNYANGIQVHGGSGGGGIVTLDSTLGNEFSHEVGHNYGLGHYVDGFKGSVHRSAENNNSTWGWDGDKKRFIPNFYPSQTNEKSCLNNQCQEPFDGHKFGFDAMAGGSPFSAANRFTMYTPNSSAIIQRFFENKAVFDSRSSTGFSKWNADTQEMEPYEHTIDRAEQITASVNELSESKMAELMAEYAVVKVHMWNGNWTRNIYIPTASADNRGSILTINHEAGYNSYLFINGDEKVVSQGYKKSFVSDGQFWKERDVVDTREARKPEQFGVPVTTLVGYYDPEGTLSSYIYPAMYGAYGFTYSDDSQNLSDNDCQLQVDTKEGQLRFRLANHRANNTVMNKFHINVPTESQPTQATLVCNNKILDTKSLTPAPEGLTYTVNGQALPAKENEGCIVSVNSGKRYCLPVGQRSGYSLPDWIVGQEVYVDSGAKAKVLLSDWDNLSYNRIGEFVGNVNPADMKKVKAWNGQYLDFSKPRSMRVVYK", "assay": "pull-down with StcE conjugated to POROS AL beads, EDTA present, silver stain"}
{"binder": "B1", "values": [{"measurement": "binding result", "result": "binds"}]}
